T1: BMP-7 (human, UniProt P18075 293-431)
T1 construct: Non-glycosylated (made in E. coli); also called BMP-7 monomer; BMP-7 chain of TG-BMP-2/BMP-7
T1 sequence (looked up): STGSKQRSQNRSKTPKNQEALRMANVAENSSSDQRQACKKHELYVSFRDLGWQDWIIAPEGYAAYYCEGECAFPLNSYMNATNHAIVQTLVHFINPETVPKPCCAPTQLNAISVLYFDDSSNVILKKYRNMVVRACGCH


Assays:
[1] = target: the molecule itself; assay: SEC; purified monomers refolded at 4 °C in 50 mM Tris pH 8.5, 1 M NaCl, 5 mM EDTA, 2% CHAPS, 2 mM reduced and 1 mM oxidized glutathione; after reverse phase chromatography the dimer was isolated on a HiLoad Superdex 75 column
[2] = target: T1, BMP-7; assay: non-reduced Western blot with two-colour infrared detection; TG-BMP-2 and BMP-7 monomers combined in equimolar amounts and refolded together, heterodimer purified by heparin affinity, size exclusion and reverse phase chromatography; non-reduced blot probed with anti-BMP-2/4 (700 nm) and anti-BMP-7 (800 nm); overlapping bands indicate the heterodimer; conditions: both partners purified

| binding result [2] | Binder | binding result [1] |
| --- | --- | --- |
| binds | TG-BMP-2 (ligand, human, One chain is written; also called engineered BMP-2; TG-BMP-2 monomer) MNQEQVSPLPVELPLIKMKPHQAKHKQRKRLKSSCKRHPLYVDFSDVGWNDWIVAPPGYHAFYCHGECPFPLADHLNSTNHAIVQTLVNSVNSKIPKACCVPTELSAISMLYLDENEKVVLKNYQDMVVEGCGCR | binds |
|  | BMP-2 (ligand, human, UniProt P12643 283-396, looked up, bone morphogenetic protein 2 (BMP-2), human, active BMP-2 protein only; also called BMP-2 homodimer; regular BMP-2 without the TG site) QAKHKQRKRLKSSCKRHPLYVDFSDVGWNDWIVAPPGYHAFYCHGECPFPLADHLNSTNHAIVQTLVNSVNSKIPKACCVPTELSAISMLYLDENEKVVLKNYQDMVVEGCGCR | binds |
